Assay results taken from patent EP1106701A1.

Experiments:
[1] = target: standard human trypsin sample enclosed in the Kodazyme Trypsin M·EIA kit (human); test: Kodazyme Trypsin M·EIA sandwich EIA, standard human trypsin 10 ng/ml
[2] = target: standard human trypsin sample enclosed in the Kodazyme Trypsin M·EIA kit (human); test: Kodazyme Trypsin M·EIA sandwich EIA, standard human trypsin 50 ng/ml
[3] = target: canine anionic trypsin (canine (dog)); test: Kodazyme Trypsin M·EIA sandwich EIA, canine anionic trypsin 25 ng/ml
[4] = target: canine anionic trypsin (canine (dog)); test: Kodazyme Trypsin M·EIA sandwich EIA, canine anionic trypsin 50 ng/ml
[5] = target: standard human trypsin sample enclosed in the Kodazyme Trypsin M·EIA kit (human); test: Kodazyme Trypsin M·EIA sandwich EIA, standard human trypsin 100 ng/ml
[6] = target: standard human trypsin sample enclosed in the Kodazyme Trypsin M·EIA kit (human); test: Kodazyme Trypsin M·EIA sandwich EIA, standard human trypsin 200 ng/ml
[7] = target: standard human trypsin sample enclosed in the Kodazyme Trypsin M·EIA kit (human); test: Kodazyme Trypsin M·EIA sandwich EIA, standard human trypsin 400 ng/ml
[8] = target: standard human trypsin sample enclosed in the Kodazyme Trypsin M·EIA kit (human); test: Kodazyme Trypsin M·EIA sandwich EIA, standard human trypsin 600 ng/ml
[9] = target: canine cationic trypsin (canine (dog)); test: Kodazyme Trypsin M·EIA sandwich EIA, canine cationic trypsin 25 ng/ml
[10] = target: canine cationic trypsin (canine (dog)); test: Kodazyme Trypsin M·EIA sandwich EIA, canine cationic trypsin 50 ng/ml
[11] = target: canine anionic trypsin (canine (dog)); test: Kodazyme Trypsin M·EIA sandwich EIA, canine anionic trypsin 100 ng/ml
[12] = target: canine anionic trypsin (canine (dog)); test: Kodazyme Trypsin M·EIA sandwich EIA, canine anionic trypsin 200 ng/ml
[13] = target: canine anionic trypsin (canine (dog)); test: Kodazyme Trypsin M·EIA sandwich EIA, canine anionic trypsin 400 ng/ml
[14] = target: canine cationic trypsin (canine (dog)); test: Kodazyme Trypsin M·EIA sandwich EIA, canine cationic trypsin 100 ng/ml
[15] = target: canine cationic trypsin (canine (dog)); test: Kodazyme Trypsin M·EIA sandwich EIA, canine cationic trypsin 200 ng/ml
[16] = target: canine cationic trypsin (canine (dog)); test: Kodazyme Trypsin M·EIA sandwich EIA, canine cationic trypsin 400 ng/ml
[17] = target: canine anionic trypsin (canine (dog)); test: Kodazyme Trypsin M·EIA sandwich EIA, canine anionic trypsin 12.5 ng/ml
[18] = target: canine anionic trypsin (canine (dog)); test: Kodazyme Trypsin M·EIA sandwich EIA, canine anionic trypsin 6.25 ng/ml
[19] = target: canine cationic trypsin (canine (dog)); test: Kodazyme Trypsin M·EIA sandwich EIA, canine cationic trypsin 12.5 ng/ml
[20] = target: canine cationic trypsin (canine (dog)); test: Kodazyme Trypsin M·EIA sandwich EIA, canine cationic trypsin 6.25 ng/ml
[21] = target: standard human trypsin sample enclosed in the Kodazyme Trypsin M·EIA kit (human); test: Kodazyme Trypsin M·EIA sandwich EIA, standard human trypsin 10 ng/ml, duplicate
[22] = target: standard human trypsin sample enclosed in the Kodazyme Trypsin M·EIA kit (human); test: Kodazyme Trypsin M·EIA sandwich EIA, standard human trypsin 50 ng/ml, duplicate
[23] = target: canine anionic trypsin (canine (dog)); test: Kodazyme Trypsin M·EIA sandwich EIA, canine anionic trypsin 25 ng/ml, duplicate
[24] = target: canine anionic trypsin (canine (dog)); test: Kodazyme Trypsin M·EIA sandwich EIA, canine anionic trypsin 50 ng/ml, duplicate
[25] = target: standard human trypsin sample enclosed in the Kodazyme Trypsin M·EIA kit (human); test: Kodazyme Trypsin M·EIA sandwich EIA, standard human trypsin 200 ng/ml, duplicate
[26] = target: standard human trypsin sample enclosed in the Kodazyme Trypsin M·EIA kit (human); test: Kodazyme Trypsin M·EIA sandwich EIA, standard human trypsin 400 ng/ml, duplicate
[27] = target: canine cationic trypsin (canine (dog)); test: Kodazyme Trypsin M·EIA sandwich EIA, canine cationic trypsin 25 ng/ml, duplicate
[28] = target: canine cationic trypsin (canine (dog)); test: Kodazyme Trypsin M·EIA sandwich EIA, canine cationic trypsin 50 ng/ml, duplicate
[29] = target: canine anionic trypsin (canine (dog)); test: Kodazyme Trypsin M·EIA sandwich EIA, canine anionic trypsin 100 ng/ml, duplicate
[30] = target: canine anionic trypsin (canine (dog)); test: Kodazyme Trypsin M·EIA sandwich EIA, canine anionic trypsin 200 ng/ml, duplicate
[31] = target: canine anionic trypsin (canine (dog)); test: Kodazyme Trypsin M·EIA sandwich EIA, canine anionic trypsin 400 ng/ml, duplicate
[32] = target: canine cationic trypsin (canine (dog)); test: Kodazyme Trypsin M·EIA sandwich EIA, canine cationic trypsin 100 ng/ml, duplicate
[33] = target: canine cationic trypsin (canine (dog)); test: Kodazyme Trypsin M·EIA sandwich EIA, canine cationic trypsin 200 ng/ml, duplicate
[34] = target: canine cationic trypsin (canine (dog)); test: Kodazyme Trypsin M·EIA sandwich EIA, canine cationic trypsin 400 ng/ml, duplicate
[35] = target: canine anionic trypsin (canine (dog)); test: Kodazyme Trypsin M·EIA sandwich EIA, canine anionic trypsin 12.5 ng/ml, duplicate
[36] = target: canine anionic trypsin (canine (dog)); test: Kodazyme Trypsin M·EIA sandwich EIA, canine anionic trypsin 6.25 ng/ml, duplicate
[37] = target: canine cationic trypsin (canine (dog)); test: Kodazyme Trypsin M·EIA sandwich EIA, canine cationic trypsin 12.5 ng/ml, duplicate
[38] = target: canine cationic trypsin (canine (dog)); test: Kodazyme Trypsin M·EIA sandwich EIA, canine cationic trypsin 6.25 ng/ml, duplicate

- A492 [1]: 0.065
- A492 [2]: 0.224
- A492 [3]: 0.023
- A492 [4]: 0.021
- A492 [5]: 0.399
- A492 [6]: 0.538
- A492 [7]: 1.15
- A492 [8]: 1.58
- A492 [9]: 0.023
- A492 [10]: 0.017
- A492 [11]: 0.02
- A492 [12]: 0.023
- A492 [13]: 0.032
- A492 [14]: 0.029
- A492 [15]: 0.017
- A492 [16]: 0.021
- A492 [17]: 0.02
- A492 [18]: 0.023
- A492 [19]: 0.021
- A492 [20]: 0.048
- A492 [21]: 0.131
- A492 [22]: 0.202
- A492 [23]: 0.021
- A492 [24]: 0.02
- A492 [25]: 0.697
- A492 [26]: 0.953
- A492 [27]: 0.018
- A492 [28]: 0.017
- A492 [29]: 0.022
- A492 [30]: 0.019
- A492 [31]: 0.038
- A492 [32]: 0.019
- A492 [33]: 0.015
- A492 [34]: 0.019
- A492 [35]: 0.024
- A492 [36]: 0.023
- A492 [37]: 0.019
- A492 [38]: 0.019
Substance: human trypsin MAb of Kodazyme Trypsin M·EIA (antibody)
